Test results published in patent publication US20220016165A1.

Biological target: interleukin-6 receptor (IL-6R) (human) (UniProt P08887)
Assay: cell-based or functional assay

Sequence of interleukin-6 receptor (IL-6R) (human) (P08887 20-468 limits assumed): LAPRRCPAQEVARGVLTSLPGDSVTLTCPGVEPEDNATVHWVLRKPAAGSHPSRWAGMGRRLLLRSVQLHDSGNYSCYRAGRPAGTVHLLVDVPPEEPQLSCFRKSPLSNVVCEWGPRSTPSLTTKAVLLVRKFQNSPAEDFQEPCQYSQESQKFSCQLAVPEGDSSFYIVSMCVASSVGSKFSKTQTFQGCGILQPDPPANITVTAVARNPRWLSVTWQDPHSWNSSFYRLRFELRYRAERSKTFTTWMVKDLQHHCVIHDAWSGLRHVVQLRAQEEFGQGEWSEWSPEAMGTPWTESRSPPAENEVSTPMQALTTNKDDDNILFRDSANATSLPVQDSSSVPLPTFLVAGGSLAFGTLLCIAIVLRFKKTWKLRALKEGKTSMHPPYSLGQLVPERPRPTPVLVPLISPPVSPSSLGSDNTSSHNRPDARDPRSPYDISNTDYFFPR

tocilizumab (antibody)
median peak levels of serum IL-6 (day 3-5): 10 fold
